Data: patent CN110642952A (SHANGHAI INST OF BIOLOGICAL PRODUCTS CO LTD, dated 2020)

What was measured:
HER3 = biological target: T1, HER3 (human, UniProt P21860 20-643, limits assumed); test: ProteOn XPR36 Protein Interaction Array System (SPR)
T1 construct: also called HER3抗原; HER3蛋白

HER3-ECD融合蛋白 = biological target: T2, HER3-ECD融合蛋白 (human); test: competition ELISA: Trx-HRG coated (10 μg/ml), HER3-ECD fusion protein 1 μg/ml pre-incubated with antibody, anti-hGH detection
T2 construct: also called HER3-ECD fusion protein

T1 sequence (P21860 20-643 limits assumed): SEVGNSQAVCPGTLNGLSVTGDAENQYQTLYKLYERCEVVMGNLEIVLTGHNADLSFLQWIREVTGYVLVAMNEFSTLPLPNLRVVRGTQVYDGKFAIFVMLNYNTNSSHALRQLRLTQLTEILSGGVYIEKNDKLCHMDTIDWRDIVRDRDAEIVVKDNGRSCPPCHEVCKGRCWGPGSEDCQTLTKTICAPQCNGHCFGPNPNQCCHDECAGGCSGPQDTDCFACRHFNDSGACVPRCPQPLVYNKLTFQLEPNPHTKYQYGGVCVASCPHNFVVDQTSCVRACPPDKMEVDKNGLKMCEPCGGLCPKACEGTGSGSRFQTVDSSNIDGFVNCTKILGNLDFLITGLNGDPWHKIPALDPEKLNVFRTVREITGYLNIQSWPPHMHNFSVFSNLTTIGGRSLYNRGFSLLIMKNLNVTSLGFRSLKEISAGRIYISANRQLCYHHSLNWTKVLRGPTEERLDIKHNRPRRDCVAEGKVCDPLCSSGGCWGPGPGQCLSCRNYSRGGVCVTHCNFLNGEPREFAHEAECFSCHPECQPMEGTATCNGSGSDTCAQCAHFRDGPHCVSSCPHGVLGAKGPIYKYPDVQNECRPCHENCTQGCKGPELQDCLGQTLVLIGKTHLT

Binder | Kd (HER3) [nM] | IC50 (HER3-ECD融合蛋白) [nM]
HER3鼠源单克隆抗体927 (antibody, V domains shown, Mouse monoclonal antibody from hybridoma ascites, purified on protein G; also called HER3抗体927) VH: EVQLQQSGPELVKPGASVKISCKASGYSFTSYYIHWVKQRPGQGLEWIGWIFPRSGHTNYNEKFKGKATLTADTSSSTAYMQVSSLTSEDSAVYFCARSRDYYGTNAMDYWGQGTSVTVSS VL: DIVMTQSPSSLTVTAGEKVTMSCKSSQSLFNSGNQKNYLTWYQQKPGQPPKLLIYWASTRESGVPDRFTGSGSGTDFTLTISSVQAEDLAVYYCQNDYSYPYTFGGGTKLEIKR | 4.13 | 1.5
HER3鼠源单克隆抗体1050 (antibody, V domains shown, Mouse monoclonal antibody from hybridoma ascites, purified on protein G; also called HER3抗体1050) VH: QVQLQQSGPELVKPGASVKISCKASGYSFTSYYIHWVKQRPGQGLEWIGWIFPGSGHTKCNENFKAKATLTADTSSSTAYMQLSSLTSEDSAVYFCARSRDYYGSNAVDYWGQGTSVTVSS VL: DIVMTQSPSSLTVTAGEKVTMSCKSSQSLLNSGNQKNYLTWYQQKPGQPPKLLIYWASTRESGVPDRFSGSGSGTDFTLTISSVQAEDLAVYYCQNDYSYPYTFGGGTKLEIKR | 5.83 | 2.8

More lines, now with the values ahead:

Kd (HER3) [nM] | IC50 (HER3-ECD融合蛋白) [nM] | Binder
0.166 | 0.3 | HER3鼠源单克隆抗体993 (antibody, V domains shown, Mouse monoclonal antibody from hybridoma ascites, purified on protein G; also called HER3抗体993) VH: EVKLVESGGGLVKPGGSLKLSCAASGFTFSSYSLSWVRQTPEKRLEWVASITFGGTAYYSDSVKGRFTISRDNARNILYLQMSSLKSEDTAMYYCVRGDGYEDPMDYWGQGTSVTVSS VL: DIVMTQTTVSLAVSLGQRATISCRASESVDSYGKSFMHWYQQKPGQPPKLLIYRASNLESGIPARFSGSGSRTDFTLTINPVEADDVSTYYCQQSNEDPYTFGGGTKLEIR
0.525 | 2.3 | HER3鼠源单克隆抗体1044 (antibody, V domains shown, Mouse monoclonal antibody from hybridoma ascites, purified on protein G; also called HER3抗体1044) VH: EVQLQQSGTELMKPGASVKISCKATGGTFSNYWIDWVKQRPGHGLEWIGEILPGSGGTDYNEKFKGKATFTADTSSNTAYMQLSSLTSEDSAVYYCARDDYDVFAYWGQGTLVTVSS VL: DIVMTQAAFSNPVTLGTSASISCRSSKSLLHSNGITYLYWYLQKPGQSPQLLIYQMSNLASGVPDRFSSSGSGTDFTLRISRVEAEDVGVYYCAQNLELPWTFGGGTKLEIKR
